In the DeepSol protein solubility set:

Test: soluble on expression in E. coli; label from the status in PepcDB or PDB records

Q: For “MGGSHHHHHHGMASALAELSEEALLSVLPTIRVPKAGDRVHKDECAFSFDTPESEGGLYICMNTFLGFGKQYVERHFNKTGQRVYLHLRRTRRPKEEDPATGTGDPPRKKPTRLAIGVEGGFDLSEEKFELDEDVKIVILPDYLEIARDGLGGLPDIVRDRVTSAVEALLSADSASRKQEVQAWDGEVRQVSKHAFSLKQLDNPARIPPCGWKCSKCDMRENLWLNLTDGSILCGRRYFDGSGGNNHAVEHYRETGYPLAVKLGTITPDGADVYSYDEDDMVLDPSLAEHLSHFGIDMLKMQKTDKTMTELEIDMNQRIGEWELIQESGVPLKPLFGPGYTGIRNLGNSCYLNSVVQVLFSIPDFQRKYVDKLEKIFQNAPTDPTQDFSTQVAKLGHGLLSGEYSKPVPESGDGERVPEQKEVQDGIAPRMFKALIGKGHPEFSTNRQQDAQEFFLHLINMVERNCRSSENPNEVFRFLVEEKIKCLATEKVKYTQRVDYIMQLPVPMDAALNKEELLEYEEKKRQAEEEKMALPELVRAQVPFSSCLEAYGAPEQVDDFWSTALQAKSVAVKTTRFASFPDYLVIQIKKFTFGLDWVPKKLDVSIEMPEELDISQLRGTGLQPGEEELPDIAPPLVTPDEPKAPMLDESVIIQLVEMGFPMDACRKAVYYTGNSGAEAAMNWVMSHMDDPDFANPLILPGSSGPGSTSAAADPPPEDCVTTIVSMGFSRDQALKALRATNNSLERAVDWIFSHIDDLDAEAAMDISEGRSAADSISESVPVGPKVRDGPGKYQLFAFISHMGTSTMCGHYVC”, which “soluble on expression in E. coli” value is on record?
A: Its value is “not soluble”.

Q: With “MGGSHHHHHHGMASALAMAPSPSLVQVYTSPAAVAVWEWQDGLGTWHPYSATVCSFIEQQFVQQKGQRFGLGSLAHSIPLGQADPSLAPYIIDLPSWTQFRQDTGTMRAVRRHLFPQHSAPGRGVVWEWLSDDGSWTAYEASVCDYLEQQVARGNQLVDLAPLGYNYTVNYTTHTQTNKTSSFCRSVRRQAGPPYPVTTIIAPPGHTGVACSCHQCLSGSRTGPVSGRYRHSMTNLPAYPVPQHPPHRTASVFGTHQAFAPYNKPSLSGARSAPRLNTTNAWGAAPPSLGSQPLYRSSLSHLGPQHLPPGSSTSGAVSASLPSGPSSSPGSVPATVPMQMPKPSRVQQALAGMTSVLMSAIGLPVCLSRAPQPTSPPASRLASKSHGSVKRLRKMSVKEATPKPEPEPEQVIKNYTEELKVPPDEDCIICMEKLSTASGYSDVTDSKAIGSLAVGHLTKCSHAFHLLCLLAMYCNGNKDGSLQCPSCKTIYGEKTGTQPQGKMEVLRFQMSLPGHEDCGTILIVYSIPHGIQGPEHPNPGKPFTARGFPRQCYLPDNAQGRKVLELLKVAWKRRLIFTVGTSSTTGETDTVVWNEIHHKTEMDRNITGHGYPDPNYLQNVLAELAAQGVTEDCLEQQ” as the sequence, how does the “soluble on expression in E. coli” value read?
A: Its value is “not soluble”.

Q: For “MGGSHHHHHHGMASALASYFDEHDCEPSDPEQETRTNMLLELARSLFNRMDFEDLGLVVDWDHHLPPPAAKTVVENLPRTVIRGSQAELKCPVCLLEFEEEETAIEMPCHHLFHSSCILPWLSKTNSCPLCRYELPTDDDTYEEHRRDKARKQQQQHRLENLHGAMYT”, which “soluble on expression in E. coli” value is on record?
A: Its value is “not soluble”.

Q: Which “soluble on expression in E. coli” value does the source give for “MGGSHHHHHHGMASALDCCTENACSKPDDDILDIPLDDPGANAAAAKIQASFRGHMARKKIKSGERGRKGPGPGGPGGAGVARGGAGGGPSGD” here?
A: Its value is “not soluble”.

Q: For “MGGSVDFERWFKGPAAIYGGIEYQTPYQPLRLKVEYDSNDYSQDFPVTRGNVDMTQHTPWNFGVLYGLGDWGDIKVSYQRGDTLTLGVNLTTNFNDMKAIWRDEPITAYDESSNQSIDEVDWQRVNQQLNGNAGYEDNRIYADDDSVTLVATQTKYRDSDEAHDRASRIFANHVPETISTYRIIETNQSMPVSETLIDAAQYKKVANNEYFDAKVADASQTDEVTYSPSEHSLKSDNLDRWDYSVSPTLSQSIGSAESFYLYAVGINTAGSVWLTDKVQASGSLYFNLFDNYDKFNYITPPDGTSVPRVRTMFRAYVHENPVRMNNLQLTWFEEYGAGFYSQMYAGYLESMFGGIGSEVMYRPLNSNWAFGIDATYIKQRTPGDWFGFYEQDHQEGGDYGRDYTVVSSGVTGFATAYYAPQWSFLKNTLLKVGVGQFLAGDKGTRIDFSKQFDSGVIAGAYASFTDLSAEEFGEGSYTKGFYISIPFDIMTVKPSKNRANFNWQPLTRDGGQMLNKQHDLYELTDERSPWFTRKGLLEHHHHHH”, which “soluble on expression in E. coli” value is on record?
A: Its value is “not soluble”.

Q: With “MGGVMSYFRGLFGAREMRILILGLDGAGKTTILYRLQVGEVVTTIPTIGFNVEQVEYKNLKFQVWDLGGQTSIRPYWRCYYANTDAIIYVVDSADRDRVGISRQELATMLQEDELQGAVLAVLANKQDIAGCLTETEVYKALGLDALRNRTIQIFKTSASKGEGLDPAMDWLANQLQQKK” as the sequence, how does the “soluble on expression in E. coli” value read?
A: Its value is “not soluble”.

Q: Which “soluble on expression in E. coli” value does the source give for “MGHHHHHHGGHMSLNTISSLETTDLPAAYHIEQRAHAFPWSEKTFASNQGERYLNFQLTQNGKMAAFAITQVVLDEATLFNIAVDPDYQRQGLGRALLEHLIDELEKRGVATLWLEVRASNAAAIALYESLGFNEATIRRNYYPTTDGREDAIIMALPISMEGGS” here?
A: Its value is “soluble”.

Q: With “MGHHHHHHGGHMSLQDFKKLPTVLTAEELIDKIFRRAARVEGRNPKEKALNKLATISNVSRDYFGKIIGAHPSYENLPDFYREMVDVVVGIRQLKKSLVALKWADGMIQKVVSRAVREVKGGKNPSAVVKSAYGRVASIIEQIDDELRFLNDAKNRMREIPILQDLPTIVVAGYPNVGKSSLVARISTVKPEVASYPFTTKKINLGFAEFAGKRVQIIDTPGLLDRPLSKRNRIERRAVLALKHLADIILFVIDPTETCGYSLEKQLSLLEEIKGYFAKPTVEVYSKADMHDRRDRQAYSAVTGEGIDELIKEIEKMVKIHSQTSTVIAPSGQTSTQEQHSEGGS” as the sequence, how does the “soluble on expression in E. coli” value read?
A: Its value is “soluble”.

Q: With “MGHHHHHHGGHMSLTDVNVKIDIMHPQPIVGLGNPAIFVQGSTQNYKEYTSLETLAKDFATTTTVYKKAEIIWKQENKPQTIAVVTFVADTPTSPEQPDSLIAGSGIIAAATSYFYNDWHFALLANFVEADALALSNLIEENEFKFLVIQTATVDELTVFTGNNLTIGLVHPLEEFLDAALIGNTASLTVGSVTWKFRHNLVGITPNTLTTSQLQAIEKANAIAYVSKAGIPQTSEGKTMSGEFIDALHGDHWVKSNIETNVQRLLSTTDKLTFDSNGIALLDTTVANVLETAFNNGIVDIVDETGVGNYSVTALGRQDLNPDDIAARNYKGLSFKYKRSGAIHTVDVTGTIEVEGGS” as the sequence, how does the “soluble on expression in E. coli” value read?
A: Its value is “soluble”.

Q: For “MGHHHHHHSHEHCAIILEDDRSDISSTCANNINHNTELLPIELDTLVGKGRFAEVYKAKLKQNTSEQFETVAVKIFPYEEYASWKTEKDIFSDINLKHENILQFLTAEERKTELGKQYWLITAFHAKGNLQEYLTRHVISWEDLRKLGSSLARGIAHLHSDHTPCGRPKMPIVHRDLKSSNILVKNDLTCCLCDFGLSLRLDPTLSVDDLANSGQVGTARYMAPEVLESRMNLENAESFKQTDVYSMALVLWEMTSRCNAVGEVKDYEPPFGSKVREHPCVESMKDNVLRDRGRPEIPSFWLNHQGIQMVCETLTECWDHDPEARLTAQCVAERFSELEHLDRLSGRSCSEEKIPEDGSLNTTK”, which “soluble on expression in E. coli” value is on record?
A: Its value is “not soluble”.

Q: Which “soluble on expression in E. coli” value does the source give for “MGHHHHHHSHESVVPARMAEMARCIRERDFPSFAQLTMKDSNQFHATCLDTFPPISYLNAISWRIIHLVHRFNAHHGDTKVAYTFDAGPNAVIFTLDDTVAEFVAAVWHGFPPGSNGD” here?
A: The value was “not soluble”.

Q: Which “soluble on expression in E. coli” value does the source give for “MGHHHHHHSHLEDFFKNMVKSADGVIVSGVKDVDDFFEHERTFLLEYHNRVKDASAKSDRMTRSHKSAADDYNRIGSSLYALGTQDSTDICKFFLKVSELFDKTRKIEARVSADEDLKLSDLLKYYLRESQAAKDLLYRRSRSLVDYENANKALDKARAKNKDVLQAETSQQLCCQKFEKISESAKQELIDFKTRRVAAFRKNLVELAELELKHAKGNLQLLQNCLAVLNGDT” here?
A: Its value is “not soluble”.

Q: For “MGHHHHHHSHMAAAIASSLIRQKRQAREREKSNACKCVSSPSKGKTSCDKNKLNVFSRVKLFGSKKRRRRRPEPQLKGIVTKLYSRQGYHLQLQADGTIDGTKDEDSTYTLFNLIPVGLRVVAIQGVQTKLYLAMNSEGYLYTSELFTPECKFKESVFENYYVTYSSMIYRQQQSGRGWYLGLNKEGEIMKGNHVKKNKPAAHFLPKPLKVAMYKEPSLHDLTEFSRSGSGTPTKSRSVSGVLNGGKSMSHNEST”, which “soluble on expression in E. coli” value is on record?
A: Its value is “soluble”.

Q: With “MGHHHHHHSHMAAAVAMETDDAGNRLRFQLELEFVQCLANPNYLNFLAQRGYFKDKAFVNYLKYLLYWKDPEYAKYLKYPQCLHMLELLQYEHFRKELVNAQCAKFIDEQQILHWQHYSRKRMRLQQALAEQQQQNNTSGK” as the sequence, how does the “soluble on expression in E. coli” value read?
A: The value was “soluble”.
